Source: paper PMC12711577

Legend:
[1] = molecular target: DDM1 N terminus (1–148) (Arabidopsis thaliana) (UniProt Q9XFH4); assay: pull-down; in vitro pulldown of recombinant CDCA7α N terminus (1-136) with DDM1 N terminus (1-148); blots quantified, averages of nine (CDCA7α mutations) and five (DDM1 mutations) replicates
[2] = molecular target: DDM1 N terminus (1–148) with K102E and K120E (Arabidopsis thaliana) (UniProt Q9XFH4); assay: as above
[3] = molecular target: T1, CDCA7α N terminus (1–136); assay: pull-down (GST pulldown, anti-His western blot, quantified); conditions: chain shown with the change; n = 5 pulldown replicates; parent: est. 98; read off a plot
T1 chain: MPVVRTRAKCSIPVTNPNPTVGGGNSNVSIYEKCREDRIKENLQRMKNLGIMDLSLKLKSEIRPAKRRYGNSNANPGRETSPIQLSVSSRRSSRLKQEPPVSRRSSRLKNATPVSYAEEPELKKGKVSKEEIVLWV

CDCA7α N terminus (1–136) with E32K, E41K, E61K and I62A (domain or fragment)
binding relative to the WT [1]: 50 % of the WT

CDCA7α N terminus (1–136) (domain or fragment)
loss of binding relative to the WT [2]: 50 % loss

B1: DDM1 N terminus (1–148), Q9XFH4 K102E; K120E; F116A; I124A (protein)
chain: MVSLRSRKVIPASEMVSDGKTEKDASGDSPTSVLNEEENCEEKSVTVVEEEILLAKNGDSSLISEAMAQEEEQLLKLREDEEKANNAGSAVAPNLNETQFTELDELLTQTQLYSEALLEEMEDATINGIESESQKAEPEKTGRGRKRK
response [3]: 4
